In assay [1] the target is Polβ(WT), purified recombinant (human, UniProt P06746 1-335). In words: SPR; OpenSPR localized SPR (Nicoya); Polβ(WT) or Polβ(T304I) covalently coupled (EDC/NHS) to a carboxyl sensor; XRCC1 injected at 10, 100 nM, 1, 2, 5 and 10 μM; 25 mM HEPES pH 8.0, 150 mM NaCl, 200 mM MgCl2, 0.1% Tween 20, 1 mM TCEP; KD from response versus concentration (affinity model). The settings on record: both partners purified. On the technique in general: Surface plasmon resonance follows binding to a sensor surface in real time, without labels.

The target of assay [2] is Polβ(T304I), purified recombinant (human, UniProt P06746 1-335, T304I). The description is as above. The settings on record: both partners purified.

B1: NTD-XRCC1(1-151)-His (domain or fragment)
chain: MPEIRLRHVVSCSSQDSTHCAENLLKADTYRKWRAAKAGEKTISVVLQLEKEEQIHSVDIGNDGSAFVEVLVGSSAGGAGEQDYEVLLVTSSFMSPSESRSGSNPNRVRMFGPDKLVRAAAEKRWDRVKIVCSQPYSKDSPFGLSFVRFHS
notes: N-terminal domain of XRCC1, residues 1-151; human by the plasmid's name (hXRCC1); The name puts the His tag after the fragment; also called N-terminal fragment of XRCC1
In the case of B1, the binding result in assay [1] is given as “binds”. The “mean fold decrease of binding affinity (KD) against Polβ(WT)” value in assay [2] was determined as 6.18 fold.

The values above are taken from paper PMC6614843, “Stability and sub-cellular localization of DNA polymerase β is regulated by interactions with NQO1 and XRCC1 in response to oxidative stress” (Nucleic Acids Research, 2019).
